Each substance was assayed on CD8+ T cells (assay: In vitro T-cell priming assay (immunogenicity) with aAPCs loaded with peptide/MHC complexes and anti-CD28 antibody). Settings: healthy donors; multimer staining after three cycles of stimulation.
Format: cell-based, human

| Substance | in vitro immunogenicity (peptide-specific CD8+ T cell response) |
| --- | --- |
| ATSGVPVYK (listed as Homo sapiens) [SEQ ID NO: 249] | peptide-specific in vitro CD8+ T cell responses |
| GLASRILDAK (listed as Homo sapiens) [SEQ ID NO: 248] | peptide-specific in vitro CD8+ T cell responses |

Same assay, conditions: in vitro immunogenicity, Table 10a

| Substance | Wells positive [%] |
| --- | --- |
| 232 (AVAPPTPASK; listed as Homo sapiens) [compound 232] | + (<20% = +) |
| 233 (KTYETNLEIKK; listed as Homo sapiens) [compound 233] | + (<20% = +) |
| 234 (VVFPFPVNK; listed as Homo sapiens) [compound 234] | + (<20% = +) |
| 237 (VLYGPAGLGK; listed as Homo sapiens) [compound 237] | + (<20% = +) |
| 248 (GLASRILDAK; listed as Homo sapiens) [compound 248] | + (<20% = +) |
| 249 (ATSGVPVYK; listed as Homo sapiens) [compound 249] | ++++ (>=70% = ++++) |

What follows are substances tested against HLA-A*03:01 (Homo sapiens, UniProt P04439) (assay: MHC binding assay (UV-ligand exchange, β2m ELISA)). Settings: not given.
Summary of the method: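 Peptide-MHC complexes formed by UV-ligand exchange of a UV-cleavable peptide for the test peptide; exchange yield quantified by β2m ELISA. Streptavidin-coated capture, samples diluted 100-fold, 1 h at 37 °C, HRP anti-β2m detection, TMB read at 450 nm against HLA-A*02:01/MLA-001 monomer standards (15–500 ng/ml).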

| Substance | binding to HLA-A*03 |
| --- | --- |
| AVCGGVLVH (listed as Homo sapiens) [SEQ ID NO: 272] | binds to HLA-A*03 |
| RLPLRVVKH (listed as Homo sapiens) [SEQ ID NO: 271] | binds to HLA-A*03 |

Same assay, conditions: binding to HLA-A*03:01, UV-ligand exchange, β2m ELISA

| Substance | Peptide exchange (MHC class I binding score, peptide exchange yield) |
| --- | --- |
| 175 (VIGTTSSPK; listed as Homo sapiens) [compound 175] | +++ (>50 = +++) |
| 176 (RLYDAYVNR; listed as Homo sapiens) [compound 176] | ++++ (>75% = ++++) |
| 177 (ALLGVIIAKK; listed as Homo sapiens) [compound 177] | ++++ (>75% = ++++) |
| 178 (RIYVYVKRK; listed as Homo sapiens) [compound 178] | +++ (>50 = +++) |
| 179 (KINPTASLK; listed as Homo sapiens) [compound 179] | +++ (>50 = +++) |
| 180 (RLKMAQESVSK; listed as Homo sapiens) [compound 180] | ++++ (>75% = ++++) |
| 181 (RVAEEILIK; listed as Homo sapiens) [compound 181] | +++ (>50 = +++) |
| 182 (QICLPAIYK; listed as Homo sapiens) [compound 182] | ++++ (>75% = ++++) |
| 183 (KVYIPPIINK; listed as Homo sapiens) [compound 183] | ++++ (>75% = ++++) |
| 184 (KVLEPPLGAR; listed as Homo sapiens) [compound 184] | +++ (>50 = +++) |
| 185 (SIINFKPLTY; listed as Homo sapiens) [compound 185] | +++ (>50 = +++) |
| 187 (KTCQVSGLLY; listed as Homo sapiens) [compound 187] | ++++ (>75% = ++++) |
| 188 (SSLPRAFQK; listed as Homo sapiens) [compound 188] | ++ (>20% = ++) |
| 189 (KVFEEPEDFLK; listed as Homo sapiens) [compound 189] | ++ (>20% = ++) |
| 190 (RSKWSNVFK; listed as Homo sapiens) [compound 190] | ++++ (>75% = ++++) |
| 191 (SLYNLGGAK; listed as Homo sapiens) [compound 191] | ++++ (>75% = ++++) |
| 192 (RSYSHVVLK; listed as Homo sapiens) [compound 192] | ++++ (>75% = ++++) |
| 193 (IVYPSATDKTK; listed as Homo sapiens) [compound 193] | +++ (>50 = +++) |
| 195 (KLQAKVLQY; listed as Homo sapiens) [compound 195] | ++++ (>75% = ++++) |

| Substance | Peptide exchange (MHC class I binding score, peptide exchange yield) |
| --- | --- |
| 196 (AISSTVLGK; listed as Homo sapiens) [compound 196] | ++++ (>75% = ++++) |
| 197 (RIVDYLLEK; listed as Homo sapiens) [compound 197] | ++++ (>75% = ++++) |
| 199 (IVFPDVISK; listed as Homo sapiens) [compound 199] | ++++ (>75% = ++++) |
| 200 (RVLPPLTRILK; listed as Homo sapiens) [compound 200] | ++++ (>75% = ++++) |
| 201 (KVADFGLARLLK; listed as Homo sapiens) [compound 201] | ++++ (>75% = ++++) |
| 202 (RLFPGLYLGY; listed as Homo sapiens) [compound 202] | +++ (>50 = +++) |
| 203 (IVAFIPLSNK; listed as Homo sapiens) [compound 203] | ++++ (>75% = ++++) |
| 204 (VAFIPLSNK; listed as Homo sapiens) [compound 204] | ++++ (>75% = ++++) |
| 205 (RVYPRPPSK; listed as Homo sapiens) [compound 205] | ++++ (>75% = ++++) |
| 206 (RLYEMILQR; listed as Homo sapiens) [compound 206] | ++++ (>75% = ++++) |
| 208 (KTGWFTLLY; listed as Homo sapiens) [compound 208] | ++++ (>75% = ++++) |
| 209 (KILDRVLSRY; listed as Homo sapiens) [compound 209] | ++++ (>75% = ++++) |
| 210 (KIFQGQINK; listed as Homo sapiens) [compound 210] | ++++ (>75% = ++++) |
| 211 (VSLGTPIMK; listed as Homo sapiens) [compound 211] | +++ (>50 = +++) |
| 212 (RTIDRSVFK; listed as Homo sapiens) [compound 212] | ++++ (>75% = ++++) |
| 213 (KLYPTHACR; listed as Homo sapiens) [compound 213] | ++++ (>75% = ++++) |
| 215 (KIWQNLRLK; listed as Homo sapiens) [compound 215] | +++ (>50 = +++) |
| 216 (RVSSVKLISK; listed as Homo sapiens) [compound 216] | +++ (>50 = +++) |
| 217 (RVYEGDGRNSLK; listed as Homo sapiens) [compound 217] | +++ (>50 = +++) |

| Substance | Peptide exchange (MHC class I binding score, peptide exchange yield) |
| --- | --- |
| 218 (KAFNQSSIFTK; listed as Homo sapiens) [compound 218] | +++ (>50 = +++) |
| 219 (ALERKFRQK; listed as Homo sapiens) [compound 219] | ++++ (>75% = ++++) |
| 220 (ALPRQAFHSK; listed as Homo sapiens) [compound 220] | ++++ (>75% = ++++) |
| 221 (RLAVSTRGK; listed as Homo sapiens) [compound 221] | ++++ (>75% = ++++) |
| 222 (RSNPYFQNK; listed as Homo sapiens) [compound 222] | ++++ (>75% = ++++) |
| 223 (GISNPITTSK; listed as Homo sapiens) [compound 223] | ++++ (>75% = ++++) |
| 224 (SLYDGFLSY; listed as Homo sapiens) [compound 224] | ++++ (>75% = ++++) |
| 225 (RVYPRPPSKTY; listed as Homo sapiens) [compound 225] | ++++ (>75% = ++++) |
| 226 (RVWLGKHYK; listed as Homo sapiens) [compound 226] | ++++ (>75% = ++++) |
| 252 (AVYNYPEGAAY; listed as Homo sapiens) [compound 252] | ++++ (>75% = ++++) |
| 253 (KLSLSHKK; listed as Homo sapiens) [compound 253] | +++ (>50 = +++) |
| 254 (SVLDKLLFH; listed as Homo sapiens) [compound 254] | ++++ (>75% = ++++) |
| 256 (AVIGALLAVGATK; listed as Homo sapiens) [compound 256] | +++ (>50 = +++) |
| 258 (QVRDTLKIVFK; listed as Homo sapiens) [compound 258] | +++ (>50 = +++) |
| 259 (RSYVPLAH; listed as Homo sapiens) [compound 259] | ++++ (>75% = ++++) |
| 261 (AVAQKLLSH; listed as Homo sapiens) [compound 261] | ++++ (>75% = ++++) |
| 262 (TMWQIPQEFVK; listed as Homo sapiens) [compound 262] | ++++ (>75% = ++++) |
| 271 (RLPLRVVKH; listed as Homo sapiens) [compound 271] | ++++ (>75% = ++++) |
| 272 (AVCGGVLVH; listed as Homo sapiens) [compound 272] | ++++ (>75% = ++++) |

— US11872270B2, “A*03 restricted peptides for use in immunotherapy against cancers and related methods” (Immatics Biotechnologies GmbH, priority 2018, dated 2024)
